These binders were tested against T1, Recombinant Human DLL4 (delta-like protein 4) (human, UniProt Q9NR61 27-524) (assay: ELISA, DLL4 coated on plate, 100 nM Fab).
T1 construct: Bought recombinant human DLL4 (R&D Systems Cat#1506-D4/CF) coated on the ELISA plate; also called rHuman DLL4; Delta-like ligand 4

ELISA Signal-blank (100 nM Fab) | Binder
0.28 | Fab VH5-51_IGHD5-18*01>3_IGHJ4*01 G100K/G104T G24T/S28R/G35V (H:KT TRV) & V3-4_IGLJ1*01 V91L/S96P S57Y (Fab, V domains shown, Fab made in E. coli: VH in plasmid A (CH1, His6 and Flag tags), VL in plasmid E (lambda CL); also called H:KT TRV & L:LP S57Y) VH: EVQLVQSGAEVKKPGESLKISCKTSGYRFTSYWIVWVRQMPGKGLEWMGIIYPGDSDTRYSPSFQGQVTISADKSISTAYLQWSSLKASDTAMYYCARRKYSYTYDYFDYWGQGTLVTVSS VL: QTVVTQEPSFSVSPGGTVTLTCGLSSGSVSTSYYPSWYQQTPGQAPRTLIYSTNTRYSGVPDRFSGSILGNKAALTITGAQADDESDYYCLLYMGPGISYVFGTGTKVTVL
0.06 | Fab VH5-51_IGHD5-18*01>3_IGHJ4*01 G100K/G104T G24T/S28R/G35V (H:KT TRV) & V3-4_IGLJ1*01 V91L/S96P T53W (Fab, V domains shown, Fab made in E. coli: VH in plasmid A (CH1, His6 and Flag tags), VL in plasmid E (lambda CL); also called H:KT TRV & L:LP T53W) VH: EVQLVQSGAEVKKPGESLKISCKTSGYRFTSYWIVWVRQMPGKGLEWMGIIYPGDSDTRYSPSFQGQVTISADKSISTAYLQWSSLKASDTAMYYCARRKYSYTYDYFDYWGQGTLVTVSS VL: QTVVTQEPSFSVSPGGTVTLTCGLSSGSVSTSYYPSWYQQTPGQAPRTLIYSWNTRSSGVPDRFSGSILGNKAALTITGAQADDESDYYCLLYMGPGISYVFGTGTKVTVL

Each binder was assayed against T2, Recombinant Human DLL4 (R&D Systems Cat#1506-D4/CF) (human, UniProt Q9NR61 27-524) (assay: ECL (MSD) multispot binding assay, DLL4 spotted on plate, Fab in solution).
T2 construct: Bought recombinant protein; also called delta-like protein 4; rHuman DLL4

Binder | ECL signal | Signal/Blank
Fab VH1-46_IGHD6-6*01_IGHJ1*01 S102A/S103P/S104F (APF) & L6_IGKJ1*01 S30L (Fab, V domains shown, Tested as a Fab; Expressed in E. coli from Plasmid A (CH1 with His6 and Flag tags) and Plasmid C (kappa CL); also called APF & S30L) VH: QVQLVQSGAEVKKPGASVKVSCKASGYTFTSYYMHWVRQAPGQGLEWMGIINPSGGSTSYAQKFQGRVTMTRDTSTSTVYMELSSLRSEDTAVYYCAREEYAPFSAEYFQHWGQGTLVTVSS VL: EIVLTQSPATLSLSPGERATLSCRASQSVLSYLAWYQQKPGQAPRLLIYDASNRATGIPARFSGSGSGTDFTLTISSLEPEDFAVYYCQQRSNWPPWTFGQGTKVEIKR | 1630 | 6.9
Fab VH1-46_IGHD6-6*01_IGHJ1*01 S102A/S103P/S104F (APF) & L6_IGKJ1*01 Y32S (Fab, V domains shown, Tested as a Fab; Expressed in E. coli from Plasmid A (CH1 with His6 and Flag tags) and Plasmid C (kappa CL); also called APF & Y32S) VH: QVQLVQSGAEVKKPGASVKVSCKASGYTFTSYYMHWVRQAPGQGLEWMGIINPSGGSTSYAQKFQGRVTMTRDTSTSTVYMELSSLRSEDTAVYYCAREEYAPFSAEYFQHWGQGTLVTVSS VL: EIVLTQSPATLSLSPGERATLSCRASQSVSSSLAWYQQKPGQAPRLLIYDASNRATGIPARFSGSGSGTDFTLTISSLEPEDFAVYYCQQRSNWPPWTFGQGTKVEIKR | 1030 | 4.9
Fab VH1-46_IGHD6-6*01_IGHJ1*01 S102A/S103P/S104F (APF) & L6_IGKJ1*01 S30W (Fab, V domains shown, Tested as a Fab; Expressed in E. coli from Plasmid A (CH1 with His6 and Flag tags) and Plasmid C (kappa CL); also called APF & S30W) VH: QVQLVQSGAEVKKPGASVKVSCKASGYTFTSYYMHWVRQAPGQGLEWMGIINPSGGSTSYAQKFQGRVTMTRDTSTSTVYMELSSLRSEDTAVYYCAREEYAPFSAEYFQHWGQGTLVTVSS VL: EIVLTQSPATLSLSPGERATLSCRASQSVWSYLAWYQQKPGQAPRLLIYDASNRATGIPARFSGSGSGTDFTLTISSLEPEDFAVYYCQQRSNWPPWTFGQGTKVEIKR | 791 | 4.3
Fab VH1-46_IGHD6-6*01_IGHJ1*01 S102A/S103P/S104F/H111F (APFF) & L6_IGKJ1*01 S28G (Fab, V domains shown, Tested as a Fab; Expressed in E. coli from Plasmid A (CH1 with His6 and Flag tags) and Plasmid C (kappa CL); also called APFF & S28G) VH: QVQLVQSGAEVKKPGASVKVSCKASGYTFTSYYMHWVRQAPGQGLEWMGIINPSGGSTSYAQKFQGRVTMTRDTSTSTVYMELSSLRSEDTAVYYCAREEYAPFSAEYFQFWGQGTLVTVSS VL: EIVLTQSPATLSLSPGERATLSCRASQGVSSYLAWYQQKPGQAPRLLIYDASNRATGIPARFSGSGSGTDFTLTISSLEPEDFAVYYCQQRSNWPPWTFGQGTKVEIKR | 183000 | 533

Now from value to binder:

ECL signal | Signal/Blank | Binder
1020 | 4.9 | Fab VH1-46_IGHD6-6*01_IGHJ1*01 S102A/S103P/S104F (APF) & L6_IGKJ1*01 S30T (Fab, V domains shown, Tested as a Fab; Expressed in E. coli from Plasmid A (CH1 with His6 and Flag tags) and Plasmid C (kappa CL); also called APF & S30T) VH: QVQLVQSGAEVKKPGASVKVSCKASGYTFTSYYMHWVRQAPGQGLEWMGIINPSGGSTSYAQKFQGRVTMTRDTSTSTVYMELSSLRSEDTAVYYCAREEYAPFSAEYFQHWGQGTLVTVSS VL: EIVLTQSPATLSLSPGERATLSCRASQSVTSYLAWYQQKPGQAPRLLIYDASNRATGIPARFSGSGSGTDFTLTISSLEPEDFAVYYCQQRSNWPPWTFGQGTKVEIKR
124000 | 314 | Fab VH1-46_IGHD6-6*01_IGHJ1*01 S102A/S103P/S104F/H111F (APFF) & L6_IGKJ1*01 S28K (Fab, V domains shown, Tested as a Fab; Expressed in E. coli from Plasmid A (CH1 with His6 and Flag tags) and Plasmid C (kappa CL); also called APFF & S28K) VH: QVQLVQSGAEVKKPGASVKVSCKASGYTFTSYYMHWVRQAPGQGLEWMGIINPSGGSTSYAQKFQGRVTMTRDTSTSTVYMELSSLRSEDTAVYYCAREEYAPFSAEYFQFWGQGTLVTVSS VL: EIVLTQSPATLSLSPGERATLSCRASQKVSSYLAWYQQKPGQAPRLLIYDASNRATGIPARFSGSGSGTDFTLTISSLEPEDFAVYYCQQRSNWPPWTFGQGTKVEIKR
134000 | 537 | Fab VH1-46_IGHD6-6*01_IGHJ1*01 S102A/S103P/S104F/H111F (APFF) & L6_IGKJ1*01 S28F (Fab, V domains shown, Tested as a Fab; Expressed in E. coli from Plasmid A (CH1 with His6 and Flag tags) and Plasmid C (kappa CL); also called APFF & S28F) VH: QVQLVQSGAEVKKPGASVKVSCKASGYTFTSYYMHWVRQAPGQGLEWMGIINPSGGSTSYAQKFQGRVTMTRDTSTSTVYMELSSLRSEDTAVYYCAREEYAPFSAEYFQFWGQGTLVTVSS VL: EIVLTQSPATLSLSPGERATLSCRASQFVSSYLAWYQQKPGQAPRLLIYDASNRATGIPARFSGSGSGTDFTLTISSLEPEDFAVYYCQQRSNWPPWTFGQGTKVEIKR
745 | 7.8 | Fab VH1-46_IGHD6-6*01_IGHJ1*01 S102A/S103P/S104F (APF) & L6_IGKJ1*01 S30R (Fab, V domains shown, Tested as a Fab; Expressed in E. coli from Plasmid A (CH1 with His6 and Flag tags) and Plasmid C (kappa CL); also called APF & S30R) VH: QVQLVQSGAEVKKPGASVKVSCKASGYTFTSYYMHWVRQAPGQGLEWMGIINPSGGSTSYAQKFQGRVTMTRDTSTSTVYMELSSLRSEDTAVYYCAREEYAPFSAEYFQHWGQGTLVTVSS VL: EIVLTQSPATLSLSPGERATLSCRASQSVRSYLAWYQQKPGQAPRLLIYDASNRATGIPARFSGSGSGTDFTLTISSLEPEDFAVYYCQQRSNWPPWTFGQGTKVEIKR

— patent publication US20120316071A1 (published 2012)
